Test results published in PMC6179962, “POLE3-POLE4 Is a Histone H3-H4 Chaperone that Maintains Chromatin Integrity during DNA Replication” (Molecular Cell, 2018).

Key:
[1] = target: tagged POLE3-POLE4 complex (GST-Pole4/His-POLE3) (human) (UniProt Q9NR33); experiment: pull-down; as a2 but 300 mM NaCl
[2] = target: T1, GST-tagged POLE3 (human, UniProt Q9NRF9 1-147); experiment: pull-down; GST-tagged POLE3 or POLE4 (WT or mutant) on glutathione beads with His-tagged POLE4 or POLE3; 150 mM and 1 M NaCl (Figures S1A, S1B); salt of Figure 1C not told; details: both partners purified
T1 construct: DNA polymerase epsilon subunit POLE3, human, full length; cloned in pGEX 6P-1; also called GST-POLE3; source: E. coli BL21(DE3) pLysS, purified (glutathione-Sepharose 4B)
T1 sequence (looked up): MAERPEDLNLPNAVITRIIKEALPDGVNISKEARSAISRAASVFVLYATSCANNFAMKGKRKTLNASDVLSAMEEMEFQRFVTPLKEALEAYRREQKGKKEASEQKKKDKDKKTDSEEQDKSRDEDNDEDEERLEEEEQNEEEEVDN

[3] = target: T2, His-tagged POLE3 (human, UniProt Q9NRF9 1-147); experiment: as above; details: both partners purified
T2 construct: DNA polymerase epsilon subunit POLE3, human; cloned via Gateway into pDEST17; also called His-POLE3; source: E. coli BL21(DE3) pLysS, purified (Ni-NTA)
T2 sequence (looked up): T1 sequence (looked up)

Molecule: purified H3-H4 histones (H3.3 variant) (from UniProt P84243 1-136; P62805 1-103) (complex)
- percent of the interaction at 150 mM NaCl [1]: 50%

B1: His-tagged POLE4 (natural protein, human, UniProt Q9NR33 1-117, looked up)
chain: MAAAAAAGSGTPREEEGPAGEAAASQPQAPTSVPGARLSRLPLARVKALVKADPDVTLAGQEAIFILARAAELFVETIAKDAYCCAQQGKRKTLQRRDLDNAIEAVDEFAFLEGTLD
notes: DNA polymerase epsilon subunit POLE4, human; cloned via Gateway into pDEST17; also called His-POLE4; source: E. coli BL21(DE3) pLysS, purified (Ni-NTA)
- binding result [2]: binds

B2: GST-tagged POLE4 (natural protein, human, UniProt Q9NR33 1-117, looked up)
chain: B1 chain
notes: DNA polymerase epsilon subunit POLE4, human, full length; cloned in pGEX 6P-1; also called GST-POLE4; source: E. coli BL21(DE3) pLysS, purified (glutathione-Sepharose 4B)
- binding result [3]: binds
